Sequences and labels used below:
B1: (Cit)-IC+SRS-((tBu)A)-PPI-(Pen)+IPD-NH2 (peptide)
peptide: [Cit]ICSRS[tBuAla]PPI[Pen]IPD-NH2
modifications: disulfide 3-11; N-terminus assumed
SMILES: CC[C@H](C)[C@H](NC(=O)[C@@H](N)CCCNC(N)=O)C(=O)N[C@H]1CSSC(C)(C)[C@@H](C(=O)N[C@H](C(=O)N2CCC[C@H]2C(=O)N[C@@H](CC(=O)O)C(N)=O)[C@@H](C)CC)NC(=O)[C@H]([C@@H](C)CC)NC(=O)[C@@H]2CCCN2C(=O)[C@@H]2CCCN2C(=O)[C@H](CC(C)(C)C)NC(=O)[C@H](CO)NC(=O)[C@H](CCCNC(=N)N)NC(=O)[C@H](CO)NC1=O
B2: (Orn)-IC+SRS-((tBu)A)-PPI-(Pen)+IPD-OH (peptide)
peptide: [Orn]ICSRS[tBuAla]PPI[Pen]IPD-OH
modifications: disulfide 3-11; N-terminus assumed
SMILES: CC[C@H](C)[C@H](NC(=O)[C@@H](N)CCCN)C(=O)N[C@H]1CSSC(C)(C)[C@@H](C(=O)N[C@H](C(=O)N2CCC[C@H]2C(=O)N[C@@H](CC(=O)O)C(=O)O)[C@@H](C)CC)NC(=O)[C@H]([C@@H](C)CC)NC(=O)[C@@H]2CCCN2C(=O)[C@@H]2CCCN2C(=O)[C@H](CC(C)(C)C)NC(=O)[C@H](CO)NC(=O)[C@H](CCCNC(=N)N)NC(=O)[C@H](CO)NC1=O
B3: AIC+SRS-((tBu)A)-P-(Oic)-IC+I-NH2 (peptide)
peptide: AICSRS[tBuAla]P[Oic]ICI-NH2
modifications: disulfide 3-11; N-terminus assumed
SMILES: CC[C@H](C)[C@H](NC(=O)[C@@H]1CSSC[C@H](NC(=O)[C@@H](NC(=O)[C@H](C)N)[C@@H](C)CC)C(=O)N[C@@H](CO)C(=O)N[C@@H](CCCNC(=N)N)C(=O)N[C@@H](CO)C(=O)N[C@@H](CC(C)(C)C)C(=O)N2CCC[C@H]2C(=O)N2[C@@H](C[C@@H]3CCCC[C@@H]32)C(=O)N[C@@H]([C@@H](C)CC)C(=O)N1)C(N)=O
B4: (ACMP)-IC+SRS-((tBu)A)-PPI-(Pen)+IPD-NH2 (peptide)
peptide: [cPrCO(1-aminomethyl)]ICSRS[tBuAla]PPI[Pen]IPD-NH2
modifications: disulfide 3-11; N-terminus assumed
SMILES: CC[C@H](C)[C@@H]1NC(=O)[C@@H]2CCCN2C(=O)[C@@H]2CCCN2C(=O)[C@H](CC(C)(C)C)NC(=O)[C@H](CO)NC(=O)[C@H](CCCNC(=N)N)NC(=O)[C@H](CO)NC(=O)[C@@H](NC(=O)[C@@H](NC(=O)C2(CN)CC2)[C@@H](C)CC)CSSC(C)(C)[C@@H](C(=O)N[C@H](C(=O)N2CCC[C@H]2C(=O)N[C@@H](CC(=O)O)C(N)=O)[C@@H](C)CC)NC1=O
B5: ((N-Me)G)-IC+SRS-((tBu)A)-PPI-(Pen)+IP-(PEG7(25 atoms))-NH2 (peptide)
peptide: [Sar]ICSRS[tBuAla]PPI[Pen]IP[PEG7]-NH2
modifications: disulfide 3-11; N-terminus assumed
SMILES: CC[C@H](C)[C@H](NC(=O)CNC)C(=O)N[C@H]1CSSC(C)(C)[C@@H](C(=O)N[C@H](C(=O)N2CCC[C@H]2C(=O)NCCOCCOCCOCCOCCOCCOCCOCCC(N)=O)[C@@H](C)CC)NC(=O)[C@H]([C@@H](C)CC)NC(=O)[C@@H]2CCCN2C(=O)[C@@H]2CCCN2C(=O)[C@H](CC(C)(C)C)NC(=O)[C@H](CO)NC(=O)[C@H](CCCNC(=N)N)NC(=O)[C@H](CO)NC1=O
B6: AIC+SRS-((tBu)A)-P-(Oic)-IC+I-NH2 (peptide)
peptide: AICSRS[tBuAla]P[Oic]ICI-NH2
modifications: disulfide 3-11; N-terminus assumed
SMILES: CC[C@H](C)[C@H](NC(=O)[C@@H]1CSSC[C@H](NC(=O)[C@@H](NC(=O)[C@H](C)N)[C@@H](C)CC)C(=O)N[C@@H](CO)C(=O)N[C@@H](CCCNC(=N)N)C(=O)N[C@@H](CO)C(=O)N[C@@H](CC(C)(C)C)C(=O)N2CCC[C@H]2C(=O)N2[C@@H](C[C@@H]3CCCC[C@@H]32)C(=O)N[C@@H]([C@@H](C)CC)C(=O)N1)C(N)=O
B7: ((N-Me)G)-IC+SRSLP-(Oic)-I-(Pen)+IP-(PEG7(25 atoms))-NH2 (peptide)
peptide: [Sar]ICSRSLP[Oic]I[Pen]IP[PEG7]-NH2
modifications: disulfide 3-11; N-terminus assumed
SMILES: CC[C@H](C)[C@H](NC(=O)CNC)C(=O)N[C@H]1CSSC(C)(C)[C@@H](C(=O)N[C@H](C(=O)N2CCC[C@H]2C(=O)NCCOCCOCCOCCOCCOCCOCCOCCC(N)=O)[C@@H](C)CC)NC(=O)[C@H]([C@@H](C)CC)NC(=O)[C@@H]2C[C@@H]3CCCC[C@@H]3N2C(=O)[C@@H]2CCCN2C(=O)[C@H](CC(C)C)NC(=O)[C@H](CO)NC(=O)[C@H](CCCNC(=N)N)NC(=O)[C@H](CO)NC1=O
B8: (Hoo)-IC+SRS-((tBu)A)-PPI-(Pen)+IPD-NH2 (peptide)
peptide: [Dihydroorotyl(S)]ICSRS[tBuAla]PPI[Pen]IPD-NH2
modifications: disulfide 3-11
SMILES: CC[C@H](C)[C@H](NC(=O)[C@@H]1CC(=O)NC(=O)N1)C(=O)N[C@H]1CSSC(C)(C)[C@@H](C(=O)N[C@H](C(=O)N2CCC[C@H]2C(=O)N[C@@H](CC(=O)O)C(N)=O)[C@@H](C)CC)NC(=O)[C@H]([C@@H](C)CC)NC(=O)[C@@H]2CCCN2C(=O)[C@@H]2CCCN2C(=O)[C@H](CC(C)(C)C)NC(=O)[C@H](CO)NC(=O)[C@H](CCCNC(=N)N)NC(=O)[C@H](CO)NC1=O
B9: (Gamma-Abu)-IC+SRS-((tBu)A)-PPI-(Pen)+IPD-NH2 (peptide)
peptide: [GABA]ICSRS[tBuAla]PPI[Pen]IPD-NH2
modifications: disulfide 3-11; N-terminus assumed
SMILES: CC[C@H](C)[C@H](NC(=O)CCCN)C(=O)N[C@H]1CSSC(C)(C)[C@@H](C(=O)N[C@H](C(=O)N2CCC[C@H]2C(=O)N[C@@H](CC(=O)O)C(N)=O)[C@@H](C)CC)NC(=O)[C@H]([C@@H](C)CC)NC(=O)[C@@H]2CCCN2C(=O)[C@@H]2CCCN2C(=O)[C@H](CC(C)(C)C)NC(=O)[C@H](CO)NC(=O)[C@H](CCCNC(=N)N)NC(=O)[C@H](CO)NC1=O
B10: (Pip)-IC+SRS-((tBu)A)-PPI-((N-Me)C)+IPD-NH2 (peptide)
peptide: [Pip]ICSRS[tBuAla]PPI[NMeC]IPD-NH2
modifications: disulfide 3-11; N-terminus assumed
SMILES: CC[C@H](C)[C@H](NC(=O)[C@@H]1CCCCN1)C(=O)N[C@H]1CSSC[C@@H](C(=O)N[C@H](C(=O)N2CCC[C@H]2C(=O)N[C@@H](CC(=O)O)C(N)=O)[C@@H](C)CC)N(C)C(=O)[C@H]([C@@H](C)CC)NC(=O)[C@@H]2CCCN2C(=O)[C@@H]2CCCN2C(=O)[C@H](CC(C)(C)C)NC(=O)[C@H](CO)NC(=O)[C@H](CCCNC(=N)N)NC(=O)[C@H](CO)NC1=O
B11: AIC+SRSLP-(Oic)-I-((N-Me)C)+IP-NH2 (peptide)
peptide: AICSRSLP[Oic]I[NMeC]IP-NH2
modifications: disulfide 3-11; N-terminus assumed
SMILES: CC[C@H](C)[C@H](NC(=O)[C@H](C)N)C(=O)N[C@H]1CSSC[C@@H](C(=O)N[C@H](C(=O)N2CCC[C@H]2C(N)=O)[C@@H](C)CC)N(C)C(=O)[C@H]([C@@H](C)CC)NC(=O)[C@@H]2C[C@@H]3CCCC[C@@H]3N2C(=O)[C@@H]2CCCN2C(=O)[C@H](CC(C)C)NC(=O)[C@H](CO)NC(=O)[C@H](CCCNC(=N)N)NC(=O)[C@H](CO)NC1=O
B12: (beta-P)-IC+SRS-((tBu)A)-PPI-(Pen)+IP-NH2 (peptide)
peptide: PICSRS[tBuAla]PPI[Pen]IP-NH2
modifications: disulfide 3-11; N-terminus assumed
SMILES: CC[C@H](C)[C@H](NC(=O)[C@@H]1CCCN1)C(=O)N[C@H]1CSSC(C)(C)[C@@H](C(=O)N[C@H](C(=O)N2CCC[C@H]2C(N)=O)[C@@H](C)CC)NC(=O)[C@H]([C@@H](C)CC)NC(=O)[C@@H]2CCCN2C(=O)[C@@H]2CCCN2C(=O)[C@H](CC(C)(C)C)NC(=O)[C@H](CO)NC(=O)[C@H](CCCNC(=N)N)NC(=O)[C@H](CO)NC1=O

This is an account of results in patent US20210246166A1 (Bayer, published 2021).

Numbered stars: 1 amine (or outer) side, 2 acyl side, 3 side chain; on linkers, the order of the positions; unused ones are H or OH. Bridge positions count the residues as written; N and C are the ends. Square brackets hold non-standard residues; d marks the D form. Ends that are not written are not given here. * marks the point of attachment. cPrCO(1-aminomethyl) = O=C(C1(CN[*:1])CC1)[*:2]; Dihydroorotyl(S) = O=C1C[C@@H](C(=O)*)NC(=O)N1; Oic = O=C(O)[C@@H]1C[C@@H]2CCCC[C@@H]2N1; PEG7 = NCCOCCOCCOCCOCCOCCOCCOCCC(=O)O; tBuAla = CC(C)(C)C[C@H](N)C(=O)O; Cit = NC(=O)NCCC[C@H](N)C(=O)O; Pen = CC(C)(S)[C@H](N)C(=O)O; NMeC = CN[C@@H](CS)C(=O)O; Pip = O=C(O)[C@@H]1CCCCN1; Orn = NCCC[C@H](N)C(=O)O; GABA = NCCCC(=O)O; Sar = CNCC(=O)O

The first assay has as its target T1, recombinant human MASP1 active protease (amino acids 297-699, C-terminal His Tag) (human, UniProt P48740 297-699).
T1 sequence: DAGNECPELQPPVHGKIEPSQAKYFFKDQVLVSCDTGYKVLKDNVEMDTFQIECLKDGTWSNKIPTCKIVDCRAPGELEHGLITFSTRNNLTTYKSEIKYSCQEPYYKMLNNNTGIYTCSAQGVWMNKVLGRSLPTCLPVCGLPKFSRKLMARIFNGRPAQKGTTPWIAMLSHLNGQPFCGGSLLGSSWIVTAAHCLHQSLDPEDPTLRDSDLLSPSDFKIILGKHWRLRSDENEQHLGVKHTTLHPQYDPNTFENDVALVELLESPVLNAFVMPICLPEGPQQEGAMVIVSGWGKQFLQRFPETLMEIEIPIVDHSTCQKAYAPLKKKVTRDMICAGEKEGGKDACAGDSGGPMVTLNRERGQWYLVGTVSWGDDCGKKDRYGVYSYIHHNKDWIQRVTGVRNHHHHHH
Put plainly: cell-based or functional assay.
Consider B1, for which the “human MASP1 IC50” value was 1.7 nM.

As for B2, the “human MASP1 IC50” value came to 1.35 nM.

Consider B3, for which the “human MASP1 IC50” value is 2.7 nM.

As to B4, the “human MASP1 IC50” value amounted to 1.6 nM.

Turning to [3‑Amino‑3‑methylbutyric acid]ICSRS[tBuAla]PPI[Pen]IPD-NH2 (disulfide 3-11) [(3-Amino-3-methylbutyric acid)-IC+SRS-((tBu)A)-PPI-(Pen)+IPD-NH2], the “human MASP1 IC50” value was determined as 1.9 nM.

As for [(1R,3S,4S)‑2‑azabicyclo(2.2.1)heptane‑3‑carboxylic acid]ICSRS[tBuAla]PPI[Pen]IP-NH2 (disulfide 3-11) [((1R,3S,4S)-2-azabicyclo[2.2.1]heptane-3-carboxylic acid)-IC+SRS-((tBu)A)-PPI-(Pen)+IP-NH2], the “human MASP1 IC50” value is 1.6 nM.

As for B5, the “human MASP1 IC50” value is 1.6 nM.

With B6, the “human MASP1 IC50” value was determined as 3.3 nM.

B7: the “human MASP1 IC50” value came out at 3.7 nM.

As for AICSRSLP[Oic]I[Pen]IPD-NH2 (disulfide 3-11; also: HCl salt) [AIC+SRSLP-(Oic)-I-(Pen)+IPD-NH2 (HCl salt)], the “human MASP1 IC50” value came out at 1.5 nM.

Turning to B8, the “human MASP1 IC50” value stood at 3 nM.

Consider B9, for which the “human MASP1 IC50” value stood at 3 nM.

For AICSRSLP[Oic]I[Pen]IPD-OH (disulfide 3-11; also: HCl salt) [AIC+SRSLP-(Oic)-I-(Pen)+IPD-OH (HCl salt)], the “human MASP1 IC50” value turned out to be 2.45 nM.

For B10, the “human MASP1 IC50” value is 1.9 nM.

Turning to B11, the “human MASP1 IC50” value stood at 3.2 nM.

As for B12, the “human MASP1 IC50” value was found to be 1.1 nM.

Take AICSRSLP[Oic]I[Pen]IPD-OH (disulfide 3-11; also: TFA salt) [AIC+SRSLP-(Oic)-I-(Pen)+IPD-OH]: the “human MASP1 IC50” value was 1.85 nM.

Regarding AICSRSLP[Oic]I[Pen]IPD-NH2 (disulfide 3-11) [AIC+SRSLP-(Oic)-I-(Pen)+IPD-NH2 (salt free form)], the “human MASP1 IC50” value amounted to 1.5 nM.

The next assay concerns the target T2, Recombinant human MASP1 enzyme (fragment corresponding to amino acids 297-699, C-terminal His Tag) (human, UniProt P48740 297-699).
T2 sequence: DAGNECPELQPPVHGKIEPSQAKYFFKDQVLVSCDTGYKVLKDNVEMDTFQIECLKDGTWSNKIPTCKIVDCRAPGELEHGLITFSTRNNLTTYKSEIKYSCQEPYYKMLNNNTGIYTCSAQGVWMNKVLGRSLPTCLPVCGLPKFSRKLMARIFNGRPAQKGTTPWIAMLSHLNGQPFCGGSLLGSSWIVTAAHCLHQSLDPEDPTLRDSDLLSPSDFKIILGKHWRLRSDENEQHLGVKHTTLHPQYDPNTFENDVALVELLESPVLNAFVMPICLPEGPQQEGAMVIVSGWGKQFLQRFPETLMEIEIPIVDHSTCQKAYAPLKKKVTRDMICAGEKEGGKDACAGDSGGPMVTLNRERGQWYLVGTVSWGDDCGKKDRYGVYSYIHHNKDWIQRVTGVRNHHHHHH
Put plainly: cell-based or functional assay.
Take [3‑Amino‑2,2‑dimethylpropionic acid]ICSRS[tBuAla]PPI[Pen]IPD-NH2 (disulfide 3-11) [(3-Amino-2,2-dimethylpropionic acid)-IC+SRS-((tBu)A)-PPI-(Pen)+IPD-NH2]: the “human MASP1 IC50” value was 4.2 nM.
